Measurements taken from PMC314469, “Protein Interaction Networks by Proteome Peptide Scanning” (PLoS Biology, 2004).

T1: Boi1 SH3 (BOI1_YEAST), P38041
T1 chain: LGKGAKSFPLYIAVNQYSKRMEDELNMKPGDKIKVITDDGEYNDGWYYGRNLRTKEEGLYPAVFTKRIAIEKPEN

T2: Boi2 SH3 (BOI2_YEAST), P39969
T2 chain: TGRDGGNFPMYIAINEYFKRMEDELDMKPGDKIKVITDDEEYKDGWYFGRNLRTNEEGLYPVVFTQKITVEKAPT

T3: Rvs167 SH3 (RV167_YEAST), P39743
T3 chain: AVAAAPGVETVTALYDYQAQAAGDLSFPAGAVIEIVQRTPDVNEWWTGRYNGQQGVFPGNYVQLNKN

T4: Yfr024 SH3 (LSB3_YEAST), P43603
T4 chain: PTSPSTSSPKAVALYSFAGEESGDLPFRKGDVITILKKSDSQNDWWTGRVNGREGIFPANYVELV

T5: Yhr016c SH3 (YSC84_YEAST), P32793
T5 chain: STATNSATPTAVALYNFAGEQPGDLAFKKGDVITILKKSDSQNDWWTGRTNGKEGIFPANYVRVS


Columns and labels:
Assay in all cases: SPOT array
[1] = target: T1, Boi1 SH3 (BOI1_YEAST), P38041
[2] = target: T2, Boi2 SH3 (BOI2_YEAST), P39969
[3] = target: T3, Rvs167 SH3 (RV167_YEAST), P39743
[4] = target: T4, Yfr024 SH3 (LSB3_YEAST), P43603
[5] = target: T5, Yhr016c SH3 (YSC84_YEAST), P32793

Row | normalised SPOT signal, Boehringer light units (BLU); mean over the file's lines of this peptide [1] | normalised SPOT signal, Boehringer light units (BLU); mean over the file's lines of this peptide [2] | normalised SPOT signal, Boehringer light units (BLU); mean over the file's lines of this peptide [3] | normalised SPOT signal, Boehringer light units (BLU); mean over the file's lines of this peptide [4] | normalised SPOT signal, Boehringer light units (BLU); mean over the file's lines of this peptide [5] | Binder
1 | 146 | 47.3 | 39 | 6040 | 838 | RNEPVKPFRNIDLK [YHR037W 29-42]
2 | 64.5 | 75.9 | 50.7 | 381 | 0 | RPPPLTPEKNLYLT [YER032W 258-271]
3 | 366 | 201 | 4880 | 34800 | 19200 | RMIPELPPKRIGSQ [YMR004W 190-203]
4 | 25.5 | 83.4 | 50.9 | 2110 | 148 | RYKPTPPLKKRYDY [YPL074W 335-348]
5 | 54.7 | 8.2 | 15.7 | 7000 | 435 | RTEPSTPSRPVPPD [YJL095W 1078-1091]
6 | 323 | 53.5 | 212 | 889 | 57.2 | RRGPGRPRKDASTS [YDR310C 204-217]
7 | 148 | 198 | 38.5 | 693 | 113 | RRKPHSPNKKKPKE [YDR223W 12-25]
8 | 210 | 61.7 | 162 | 271 | 104 | RPNPTQPRKPLDSK [YDR359C 776-789]
9 | 92.7 | 27.5 | 10900 | 13100 | 3320 | RIVPAIPKKATVDE [YNL064C 356-369]
10 | 230 | 76.1 | 296 | 384 | 144 | RSIPRGPDKNSLRV [YOR322C 268-281]
11 | 192 | 39.9 | 59.3 | 840 | 45.5 | RKRPAPPKKKAPST [YFR013W 82-95]
12 | 6170 | 33.8 | 25200 | 19600 | 9140 | RPLPQLPNRNNRPV [YOR181W 311-324]
13 | 61.2 | 17 | 4.9 | 511 | 115 | RNEPVIPTKPSSSQ [YNL139C 1279-1292]
14 | 80.2 | 74.7 | 2100 | 16500 | 2650 | RPTPRKPSRMATDH [YER118C 8-21]
15 | 43.1 | 22.2 | 44.9 | 618 | 158 | RIPPTVPSKIIDVV [YGR198W 7-20]
16 | 102 | 37.2 | 140 | 6260 | 578 | RPSPWLPSKPNSYH [YDR151C 80-93]
17 | 156 | 17.8 | 42.3 | 2620 | 196 | RVLPSKPKKSVKEN [YLR183C 354-367]
18 | 147 | 0 | 48.8 | 146 | 199 | RGTPANPGRVATLI [YER163C 47-60]
19 | 101 | 62.7 | 48.3 | 3300 | 90.2 | RHRPQKPVRTVIYT [YOL164W 148-161]
20 | 69.4 | 251 | 719 | 10700 | 1130 | RLLPSWPKRGFSLL [YIL047C 210-223]
21 | 52.5 | 30.1 | 73.9 | 547 | 197 | RLIPTSPQKTNINT [YGR146C 14-27]
22 | 122 | 76.2 | 55.3 | 271 | 250 | RVHPEPPNKPGITT [YDR330W 407-420]
